test system: K4 kissing-loop RNA reporter; experiment: apparent KD of K4 kissing-loop reporter; higher = weaker reporter binding; settings: Eterna round: R107; input ligand: none
Experimental: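 RNA-MaP round R107: designed RNA switches with theophylline, tryptophan, arginine or FMN aptamers are transcribed on-chip within common flanks. They are titrated with a labelled K4 kissing-loop RNA reporter in RNA-MaP buffer (100 mM Tris pH 7.5, 80 mM KCl, 4 mM MgCl2), without ligand or with the indicated ligand. Median apparent KD per design.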
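Further: bound reporter read as fluorescence of individual clusters on recovered sequencing chips by microscopy, with normalized cluster intensities fitted with a binding model.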

Sequence | apparent KD of K4 kissing-loop reporter
CUCGAGUGAUGUUCGAUUAUUUAUACAGAUACCAGUGAAUUUUAACACCCUUGGCAGCUGGUAGUAUCUUUGUAAUUUUAACUAG [JR_ExcTheophyA_Sub003] | 147 nM
ACCUACGAUCACGAAAGUGAUUGUAGGAUCUAGGAUAUGCUGAAGAGCAGAAGGAGAGUGAUGUUCUCAUCUCACGAAAGUGAGA [whbob_Ex_FMNA__2th190] | 217 nM
UUUCGUUUCGUCUGACAUAAUUGGCUAGAAGGAGCGGUAAAAUUACCAGGUAGGUCGCUAGCCCAGUGAUGUUGGGACUAGCAUA [Onqudi] | 133 nM
CGCCGGAAGGCGAGCGCUCCCACUCCGGAAGGAGCGCCCGAAAGGGCAGGUAGGUCGCCGGAGUGAUGUUCCGGUGGAGGGCUCG [#2 Exclusion - Arginine A Attempt #29 (Inspired by Omei)] | 121 nM
GUUACGCAUGGAAGGAGCGCACUCCGAUUGAUCGACACAGUGAUGUUGUGGUUCGUUCGAAUGCAGGUAGGUCGCCAUGUGUAAC [Ex Arginine B K4 17] | 253 nM
CUAGCUAGCAUGGAAACAUGCUAGCUAGAUUAGGAUAUGACGUAAGUCAGAAGGGAUAAAUGGAGUGAUGUUCCGGACGCAAGUC [#2 Same State - FMN A Attempt #4 (HarryS)] | 247 nM
UAAAACGCUUGAAUAACAAGCGAAAAUUCGCGAGGACCGGUACGGCCGCCACUCGCUAACUGCGAGUGAUGUUCGAUAAUAAAAU [Mat - Mod of OpenEnded 3 - D4] | 158 nM
GUGAAGGAGAUGCAGUGAUGUUGCAGAGACUAGGAUAUCAGGAAACUGAGAAGGAGUCAAUUCCUUCAUUUAGACUGCAACAUAA [KL-SSFMN-A12] | 138 nM
GAUUCUGUUCGAAAGAACGGAAUCACGGAAGGAGCGAGAGAAAUCUCAGGUAGGUCGCCGAAUUUUUGAUAGUGAUGUUAUCAUU [Arginine A K4 2] | 388 nM
CAUAGGAAACUAUGUUUCUCUCUUACUGAAGGAGCGCGUGAAAACGCAGGUAGGUCGCAGAAUUUAAAAGAGAGUGAUGUUCUCA [Ex Arginine A K4 11] | 598 nM
UUAUAUUUUAUAUUUAGUAGAGCUCUCGCUCGAGGACCGGUACGGCCGCCACUCGAGUGAUGUUCGAGUGGGAGAGCUCUACAUU [AK3.3 EXC Tryptophan A] | 94.9 nM
CGUAAGGAUUGACGACUGCAGAGCAAAAUAAAGGAUAUCGCAGCGUCGAGAAGGUUAUCGUGCGCCAGUGAUGUUGGCGGUAGUC [theeternabot_sameState_KL_FMN_A_22] | 108 nM
UCCUGCAAUCGGCCACGAAAGUGGAUGGAUACCAGAGUCGAAAGACUCCCUUGGCAGCCAGUGAUGUUGGAAGCAGGUAAAUAAA | 470 nM
CUAUGGAAACAUAGGAAUCGGGAAACCGAUACCAGUAUGGAAACAUACCCUUGGCAGCGGAAUGAUUCAACGGAGUGAUGUUCCG [Theophylline A K4 20] | 399 nM
ACGUAGCAGGCGGCCGCCACUCCGCAUAUGGAUCUCGAGUGAUGUUUGAGGGUGCCCAUCACAGCGAGGACCGGGCCAAUUAAGC [theeternabot_sameState_KL_Trp_B_10] | 127 nM
GUUACGCAUGGAAGGAGCGCUCUCAUGCUUAAUAACACAGUGAUGUUGUGAAUUUGCAUAAAGCAGGUAGGUCGCCAUGUGUAAC [Ex Arginine B K4 8] | 359 nM

same assay, conditions: Eterna round: R107; input ligand: theophylline 20 uM

Sequence | apparent KD of K4 kissing-loop reporter
ACGUAUAUCAGAGGAUAUCGUAUUAAUAUUUUAUCUAUAUAUUAUAGCAGUGAUGUUGCAAUUAUUCGAGAAGGCUGAUUUACGA [JR_SSFMNB_Sub023] | 194 nM
GUAACCUUGCUCGAGUGAUGUUCGAGCGAAGGAGCGCGAGAAAUCGCAGGUAGGUCGCGCUCGAAAUUUGAGCGAACAAUUAUUA [Arg A Ex t2] | 123 nM
GGCAUAUGAAAUCGCCUAGAGAGAAAGGAUACCAGCACCCGGCGGUGCCCUUGGCAGCCUAGCCCAGUGAUGUUGGGUCCUCUAA [Rasoonanxe] | 296 nM
CGCCGCAAGGCGAGCGCUCCCACUCCGGAAGGAGCGCCCGAAAGGGCAGGUAGGUCGCCGGAGUGAUGUUCCGGUGGAGGGCUCG [#2 Exclusion - Arginine A Attempt #27 (Inspired by Omei)] | 360 nM
UUUAUUAAGACGGCCGCCACUGAUUCAUAGUGAUGUUAUGAUAUAAUUUUAGUGAUUUUGAUUAGCAGGACCGGGUCAAUUAUUA [JR_ExcTryptoB_Sub016] | 194 nM
GCAGACACGCAGUGAUGUUGCGAAACGGAAGGAGCGCGUGAAAACGCAGGUAGGUCGCCGAAACAUAAAUUAUAAUUUUGUUUGC [Arginine A K4 13] | 240 nM
AAGUCAUAUAGAAGGAGCGUGUUUUUUAAUUUGUUUUCAUGAUCGAGUGAUGUUCGAUAUACACAGGUAGGUCGCUGUAUGAUAA [hbob_SS_Arginine_B_2t143] | 177 nM
UUUGGUUUCUCGGCCGCCACUCGUUGUCUAUCGGCUUCAGGGAUAUAGUGAUGUUAUGUAUAGAAGAGGACCGGGAGAAGGUUCU [ExTryptoB.Dx] | 307 nM
CCGAAGAACCAGUGAUGUUGGUUGACUAGACAGGAUAUGAGCAACAUCAGAAGGGUCUGGCUUCGGGAGUGGGCCGCGCUGACCU [Artilati] | 1210 nM
CCGGGCGGCUGAAGGAGCGGGCGGGCCCGAGUGAUGUUCGGGUGGGCCGUGAGGUCCGGUGCCCAGGUAGGUCGCGGUUCCGCCC [#2 Same State - Arginine B Attempt #10 (HarryS)] | 215 nM
GCUAUGGUAGGAAGGAGCGCUGCGUUGUUUUUACGAGUGAUGUUCGGAAGCGGCGUGUUAAAGCAGGUAGGUCGCCUACUAUAGC [Arginine B K4 24] | 172 nM
AGUGAUGUGGGAAGGAGCGCUACAAGACUUCAGUGAUGUUGAAGUGAUGAUUUAGUGUUGUAGCAGGUAGGUCGCCUAGAUGUUA [KL-XARG-B9] | 36.2 nM
UGCUUAGUGAUGUUUGAUUUGGUGCAUGCAGAGGAUAUAGGGUGCUUUAGAAGGCUGAGGAGUGCGCCGAGUGAUGUUCGGCGCU [Exclusion FMN A GF11] | 182 nM
AAAUUGUUUAGAGGAUAUUCUUUAUUCGACAUAACCUUCUAUAAGGUGCAGUGAUGUUGCAAUAUAGGAGAAGGUUGAGUGAUAA [Exclusion FMN B Gf 15] | 121 nM
AAUAUCUAGUAUAUAUUUUAUAAAACAGAUACCAGUGAUUAUAUACACCCUUGGCAGCUGGACGAGUGAUGUUCGUAUAUAUUAA [JR_SSTheophyA_Sub008] | 244 nM
UACAUAUAGUUAUUUCUACAUUUAUUUAGUCAGGAUAUCGAUUAGACGAGAAGGGACAAUAUCAAGUGAUGUUUGAUAAUUCAAA [JR_ExcFMNA_Sub011] | 100 nM
CUCGAGUGAUGUUCGAUUAUUUAUACAGAUACCAGUGAAUUUUAACACCCUUGGCAGCUGGUAGUAUCUUUGUAAUUUUAACUAG [JR_ExcTheophyA_Sub003] | 176 nM
ACCUACGAUCACGAAAGUGAUUGUAGGAUCUAGGAUAUGCUGAAGAGCAGAAGGAGAGUGAUGUUCUCAUCUCACGAAAGUGAGA [whbob_Ex_FMNA__2th190] | 245 nM
UUUCGUUUCGUCUGACAUAAUUGGCUAGAAGGAGCGGUAAAAUUACCAGGUAGGUCGCUAGCCCAGUGAUGUUGGGACUAGCAUA [Onqudi] | 156 nM
CGCCGGAAGGCGAGCGCUCCCACUCCGGAAGGAGCGCCCGAAAGGGCAGGUAGGUCGCCGGAGUGAUGUUCCGGUGGAGGGCUCG [#2 Exclusion - Arginine A Attempt #29 (Inspired by Omei)] | 371 nM
GUUACGCAUGGAAGGAGCGCACUCCGAUUGAUCGACACAGUGAUGUUGUGGUUCGUUCGAAUGCAGGUAGGUCGCCAUGUGUAAC [Ex Arginine B K4 17] | 303 nM
CUAGCUAGCAUGGAAACAUGCUAGCUAGAUUAGGAUAUGACGUAAGUCAGAAGGGAUAAAUGGAGUGAUGUUCCGGACGCAAGUC [#2 Same State - FMN A Attempt #4 (HarryS)] | 295 nM
UAAAACGCUUGAAUAACAAGCGAAAAUUCGCGAGGACCGGUACGGCCGCCACUCGCUAACUGCGAGUGAUGUUCGAUAAUAAAAU [Mat - Mod of OpenEnded 3 - D4] | 188 nM
GUGAAGGAGAUGCAGUGAUGUUGCAGAGACUAGGAUAUCAGGAAACUGAGAAGGAGUCAAUUCCUUCAUUUAGACUGCAACAUAA [KL-SSFMN-A12] | 296 nM
